The target in one test is T1, cyno OX40L (cynomolgus monkey, UniProt G7NVH7 51-183).
T1 construct: also called cyOX40L; cynomolgus monkey OX40L
T1 sequence: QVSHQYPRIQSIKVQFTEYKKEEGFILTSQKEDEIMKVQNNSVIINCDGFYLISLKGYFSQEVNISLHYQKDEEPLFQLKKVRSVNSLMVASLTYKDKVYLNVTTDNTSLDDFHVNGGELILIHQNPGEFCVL
Put plainly: Gyrolab in-solution affinity, 24 h incubation; 95% CI 174-218 pM. How it is done: (§1) Under receptor-controlled measurements a serial dilution of OX40L (ranging from 1.3 μM-0.031 μM), IL-13 (ranging from 0.1 μM-0.25 fM), or serum albumin (ranging from 100 μM-3.2 μM) and a fixed amount of ISVD construct F027100187 (5 nM in case of OX40L, […] in case of IL-13 and 30 nM in case of HSA and cyno SA) were mixed to allow interaction and incubated for either 24 or 48 hours (in case of OX40L and IL-13) or 2 hours (in case of serum albumin) to reach equilibrium.
(§2) Biotinylated human OX40L/IL-13/serum albumin was captured in the microstructures of a Gyrolab Bioaffy 1000 CD, which contains columns of beads and was used as a molecular probe to capture free F027100187 from the equilibrated solution. The mixture of OX40L/IL13/serum albumin and F027100187 (containing free OX40UIL-13/serum albumin, free F027100187 and OX40L/IL13/serum albumin—F027100187 complexes) was allowed to flow through the beads, and a small percentage of free F027100187 was captured, which is proportional to the free ISVD construct concentration. A fluorescently labeled anti-ISVD antibody, ABH0086-Alexa647, was then injected to label any captured F027100187 and after rinsing away excess of fluorescent probe, the change in fluorescence was determined. Fitting of the dilution series was done using Gyrolab Analysis software, where KD- and receptor-controlled curves were analyzed to determine the KD value.

Another test deals with T2, cyno serum albumin (cynomolgus monkey).
T2 construct: also called cyno SA; cynomolgus monkey serum albumin
Nature of the test: Gyrolab in-solution affinity, 2 h incubation; 95% CI 8.3-10.9 nM. How it is done:
as §1, §2

Another test has as its target T3, cyno IL-13 (cynomolgus monkey, UniProt Q0PW92 21-132).
T3 construct: also called cynomolgus monkey IL-13
Nature of the test: Gyrolab in-solution affinity, 48 h incubation; 95% CI 4.7-7.1 pM. How it is done:
as §1, §2

The next test deals with T4, human CD40L (human, UniProt P29965 113-261, limits assumed).
T4 construct: also called hCD40L
T4 sequence (looked up): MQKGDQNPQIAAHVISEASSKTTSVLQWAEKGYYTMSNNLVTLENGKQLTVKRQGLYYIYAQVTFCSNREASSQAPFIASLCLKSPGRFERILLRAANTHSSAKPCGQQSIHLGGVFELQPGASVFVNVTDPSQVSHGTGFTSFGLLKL
Nature of the test: SPR (ProteOn XPR36), cytokine immobilised by amine coupling. Here is the method: (§3) Absence of binding to OX40L and IL-13 related human cytokines was assessed via SPR (Proteon XPR36). As IL-13 related cytokine, IL-4 was assessed. As OX40L related targets, human TRAIL, CD30L, CD40L and RANKL were assessed.
(§4) To this end, the cytokines were immobilized on a ProteOn GLC sensor chip at 25 μg/mL for 600 s using amine coupling, with 80 seconds injection of EDC/NHS for activation and a 150-seconds injection of 1 M Ethanolamine HCl for deactivation (ProteOn Amine Coupling Kit. cat. 176-2410). Flow rate during activation and deactivation was set to 30 μl/min, and during ligand injection to 25 μl/min. The pH of the 10 mM acetate immobilization buffer was 6.0 for all cytokines, except for RANKL where the pH was 5.0.
(§5) Next, 1 μM of F027100187 was injected for 2 minutes and allowed to dissociate for 600 s at a flow rate of 45 μL/min. As running buffer PBS (pH7.4)+0.005% Tween 20 was used. As positive controls, 100 nM α-hIL-4, α-hTRAIL, α-hCD30L, α-hCD40L Ab and α-hRANKL VHH (Nanobody®, Nb) were injected. Interaction between F027100187 and the positive controls with the immobilized targets was measured by detection of increases in refractory index which occurs as a result of mass changes on the chip upon binding.

Another test has as its target T5, human IL-4 (human, UniProt P05112 25-153).
T5 construct: also called hIL-4
T5 sequence (looked up): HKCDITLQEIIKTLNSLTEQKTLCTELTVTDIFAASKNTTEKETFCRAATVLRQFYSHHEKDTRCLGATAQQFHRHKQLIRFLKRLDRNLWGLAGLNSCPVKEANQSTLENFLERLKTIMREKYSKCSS
Described as above. Here is the method: as §3, §4, §5

For a further test, the target named is T6, human RANKL (human, UniProt O14788 140-317, limits assumed).
T6 construct: also called hRANKL
T6 sequence (looked up): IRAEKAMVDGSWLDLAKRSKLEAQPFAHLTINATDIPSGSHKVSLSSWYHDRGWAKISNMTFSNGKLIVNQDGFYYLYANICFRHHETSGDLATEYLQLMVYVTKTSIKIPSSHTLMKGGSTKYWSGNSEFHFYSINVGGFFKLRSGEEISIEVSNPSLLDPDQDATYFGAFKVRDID
The test is described as above. Here is the method: as §3, §4, §5

Another test has as its target T7, human CD30L (human, UniProt P32971 63-234, limits assumed).
T7 construct: also called hCD30L
T7 sequence (looked up): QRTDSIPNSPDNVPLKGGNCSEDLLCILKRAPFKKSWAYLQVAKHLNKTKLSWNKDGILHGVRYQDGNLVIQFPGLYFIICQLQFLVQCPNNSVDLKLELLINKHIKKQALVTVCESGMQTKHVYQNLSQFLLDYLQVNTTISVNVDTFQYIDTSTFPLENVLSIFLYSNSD
Described as above. How it is done:
as §3, §4, §5

The next test has as its target T8, human TRAIL (human, UniProt P50591 114-281, limits assumed).
T8 construct: also called hTRAIL
The test is described as above. Here is the method:
as §3, §4, §5

Test [1] has as its target T9, human serum albumin (human, UniProt P02768 25-609).
T9 construct: also called HSA; HAS
Put plainly: Gyrolab in-solution affinity, 2 h incubation; 95% CI 5.5-7.6 nM. Here is the method: as §1, §2

For test [2], the target named is T9, human serum albumin. Put plainly: Gyrolab in-solution affinity, 2 h incubation; 95% CI 7.7-9.0 nM. Here is the method:
as §1, §2

Another test concerns the target T10, human IL-13 (human, UniProt P35225 35-146, limits assumed).
T10 construct: Recombinant soluble protein; also called hIL-13; soluble hIL-13
Nature of the test: Gyrolab in-solution affinity, 48 h incubation; 95% CI 3.4-7.1 pM. How it is done:
as §1, §2

T9 sequence (P02768 25-609 limits assumed): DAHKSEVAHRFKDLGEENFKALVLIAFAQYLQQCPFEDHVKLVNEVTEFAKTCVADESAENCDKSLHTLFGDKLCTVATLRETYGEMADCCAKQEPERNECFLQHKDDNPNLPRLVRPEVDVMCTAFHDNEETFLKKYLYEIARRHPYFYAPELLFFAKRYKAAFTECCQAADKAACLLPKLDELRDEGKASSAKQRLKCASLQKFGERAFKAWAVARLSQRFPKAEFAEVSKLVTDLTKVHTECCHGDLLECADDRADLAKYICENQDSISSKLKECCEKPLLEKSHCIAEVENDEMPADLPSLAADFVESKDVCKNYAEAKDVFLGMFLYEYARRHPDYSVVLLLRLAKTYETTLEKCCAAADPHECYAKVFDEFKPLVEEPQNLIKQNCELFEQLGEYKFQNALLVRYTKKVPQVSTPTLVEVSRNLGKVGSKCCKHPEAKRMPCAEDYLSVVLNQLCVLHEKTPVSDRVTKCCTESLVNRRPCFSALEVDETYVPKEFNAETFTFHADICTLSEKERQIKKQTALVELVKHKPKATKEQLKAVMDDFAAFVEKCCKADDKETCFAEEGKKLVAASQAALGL
T8 sequence (P50591 114-281 limits assumed): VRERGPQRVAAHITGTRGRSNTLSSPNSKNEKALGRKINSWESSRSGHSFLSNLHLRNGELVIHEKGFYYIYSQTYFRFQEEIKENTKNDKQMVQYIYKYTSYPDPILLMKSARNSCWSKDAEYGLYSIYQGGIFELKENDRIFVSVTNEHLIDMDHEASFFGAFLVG
T2 sequence (A2V9Z4 25-608): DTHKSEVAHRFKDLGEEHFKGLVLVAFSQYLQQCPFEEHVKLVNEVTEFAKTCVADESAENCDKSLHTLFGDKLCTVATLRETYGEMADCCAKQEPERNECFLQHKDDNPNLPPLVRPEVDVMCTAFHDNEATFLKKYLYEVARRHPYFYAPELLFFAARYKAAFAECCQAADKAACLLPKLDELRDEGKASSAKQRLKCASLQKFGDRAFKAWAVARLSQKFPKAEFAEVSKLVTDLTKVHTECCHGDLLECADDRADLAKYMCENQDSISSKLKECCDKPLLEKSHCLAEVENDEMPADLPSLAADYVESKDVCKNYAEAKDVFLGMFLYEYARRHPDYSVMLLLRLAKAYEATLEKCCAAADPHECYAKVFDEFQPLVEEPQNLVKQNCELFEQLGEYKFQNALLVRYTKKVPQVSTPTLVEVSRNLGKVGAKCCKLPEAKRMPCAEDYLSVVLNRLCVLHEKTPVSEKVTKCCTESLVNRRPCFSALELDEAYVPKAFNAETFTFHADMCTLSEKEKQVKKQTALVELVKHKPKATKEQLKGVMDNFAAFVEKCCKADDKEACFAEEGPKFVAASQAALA
T10 sequence (P35225 35-146 limits assumed): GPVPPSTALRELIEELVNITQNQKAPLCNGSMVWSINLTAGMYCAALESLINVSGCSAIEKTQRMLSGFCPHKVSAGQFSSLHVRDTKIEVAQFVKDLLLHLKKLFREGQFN
T3 sequence (Q0PW92 entry or part of it): as the sequence (P35225 35-146 limits assumed) above, with G1S, R10K, M42V, S67N, H83R, L100V counted along it

B1: ISVD construct F027100187 (other)
chain: DVQLVESGGGVVQPGGSLRLSCAASRSIGRYDRMGWYRHRPGEPRELVATITGGSSINYGDSVKGRFTISIDNSKNTVYLQMNSLRPEDTALYYCNFNKYQISRDTWGQGTLVTVSSGGGGSGGGSEVQLVESGGGVVQPGGSLRLSCAASGRTFSSYRMGWFRQAPGKEREFVAALSGDGYSTYTANSVKGRFTISRDNSKNTVYLQMNSLRPEDTALYYCAAKLQYVSGWSYDYPYWGQGTLVTVSSGGGGSGGGSEVQLVESGGGVVQPGGSLRLSCAASGFTFRSFGMSWVRQAPGKGPEWVSSISGSGSDTLYADSVKGRFTISRDNSKNTLYLQMNSLRPEDTALYYCTIGGSLSRSSQGTLVTVSSGGGGSGGGSEVQLVESGGGVVQPGGSLRLSCAASGFTFNNYAMKWVRQAPGKGLEWVSSITTGGGSTDYADSVKGRFTISRDNSKNTLYLQMNSLRPEDTALYYCANVPFGYYSEHFSGLSFDYRGQGTLVTVSSA
notes: Tetravalent, trispecific single-chain construct of four VHH (ISVD) domains: one against OX40L, two against IL-13, one against serum albumin; also called F0271000187; F27100187
Usually Kd stands for the constant that tells how readily two partners part at equilibrium. A low value points to higher affinity. Turning to B1, the Kd with cyno OX40L turned out to be 0.196 nM; with cyno serum albumin, 9.6 nM; with cyno IL-13 it was 0.0059 nM; with human serum albumin [1], 6.6 nM; in the test with human serum albumin [2], 8.3 nM; with human IL-13, 0.0053 nM. In addition, the binding result with human CD40L, with human IL-4, with human RANKL, with human CD30L and with human TRAIL was “no binding (tested: 1 µM)” in each case.
